Experimental data from doi:10.1101/2024.06.01.596940 (bioRxiv, 2024).

T1: mouse GPR182 (untagged), stably expressed on HEK293T cells (mouse, UniProt P43142 1-398)
T1 sequence: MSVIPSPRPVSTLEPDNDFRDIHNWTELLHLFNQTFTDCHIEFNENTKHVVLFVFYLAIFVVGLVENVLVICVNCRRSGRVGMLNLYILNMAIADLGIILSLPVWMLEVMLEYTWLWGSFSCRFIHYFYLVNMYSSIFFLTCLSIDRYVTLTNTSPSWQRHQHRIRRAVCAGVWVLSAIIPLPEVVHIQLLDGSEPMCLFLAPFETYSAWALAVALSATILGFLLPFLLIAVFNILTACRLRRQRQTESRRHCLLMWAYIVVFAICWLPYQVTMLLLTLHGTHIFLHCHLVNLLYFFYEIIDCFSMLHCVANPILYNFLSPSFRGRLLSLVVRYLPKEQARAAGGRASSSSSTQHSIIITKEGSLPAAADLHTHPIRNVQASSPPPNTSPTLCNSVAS

B1: human CCL25 (ligand)
chain: QGVFEDCCLAYHYPIGWAVLRRAWTYRIQEVSGSCNLPAAIFYLPKRHRKVCGNPKSREVQRAMKLLDARNKVFAKLHHNTQTFQAGPHAVKKLSSGNSKLSSSKFSNPISSSKRNVSLLISANSGL
B2: human CCL19 (ligand)
chain: GTNDAEDCCLSVTQKPIPGYIVRNFHYLLIKDGCRVPAVVFTTLRGRQLCAPPDQPWVERIIQRLQRTSAKMKRRSS
B3: viral macrophage inflammatory protein II (ligand)
chain: GDTLGASWHRPDKCCLGYQKRPLPQVLLSSWYPTSQLCSKPGVIFLTKRGRQVCADKSKDWVKKLMQQLPVTAR
B4: mouse CXCL17 (ligand)
chain: SPNPGVARSHGDQHLAPRRWLLEGGQECECKDWFLQAPKRKATAVLGPPRKQCPCDHVKGREKKNRHQKHHRKSQRPSRACQQFLKRCHLASFALPL
B5: human CXCL17 (ligand)
chain: SSLNPGVARGHRDRGQASRRWLQEGGQECECKDWFLRAPRRKFMTVSGLPKKQCPCDHFKGNVKKTRHQRHHRKPNKHSRACQQFLKQCQLRSFALPL
B6: human GPR15L (ligand)
chain: KRRPAKAWSGRRTRLCCHRVPSPNSTNLKGHHVRLCKPCKLEPEPRLWVVPGALPQV
B7: mouse GPR15L (ligand)
chain: RRHPAKSLKLRRCCHLSPRSKLTTWKGNHTRPCRLCRNKLPVKSWVVPGALPQI
B8: human CXCL13 (ligand)
chain: VLEVYYTSLRCRCVQESSVFIPRRFIDRIQILPRGNGCPRKEIIVWKKNKSIVCVDPQAEWIQRMMEVLRKRSSSTLPVPVFKRKIP

Experiments:
[1] = target: human GPR182 (untagged), stably expressed on HEK293T cells (human, UniProt O15218 1-404); assay: flow cytometry on cells
Sequence of human GPR182 (untagged), stably expressed on HEK293T cells (O15218 whole entry): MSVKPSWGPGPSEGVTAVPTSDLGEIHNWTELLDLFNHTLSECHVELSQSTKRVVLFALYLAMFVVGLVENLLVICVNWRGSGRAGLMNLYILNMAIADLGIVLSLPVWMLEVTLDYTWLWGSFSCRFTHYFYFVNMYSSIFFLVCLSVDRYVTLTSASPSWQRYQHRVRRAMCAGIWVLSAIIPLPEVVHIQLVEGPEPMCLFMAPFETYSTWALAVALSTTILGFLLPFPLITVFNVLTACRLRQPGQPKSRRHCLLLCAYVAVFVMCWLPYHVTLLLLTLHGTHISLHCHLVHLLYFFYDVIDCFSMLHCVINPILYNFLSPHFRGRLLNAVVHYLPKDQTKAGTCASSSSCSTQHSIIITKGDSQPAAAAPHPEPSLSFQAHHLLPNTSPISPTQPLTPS

[2] = target: T1, mouse GPR182 (untagged), stably …; assay: flow cytometry on cells

| Binder | pIC50 [1] | pIC50 [2] |
| --- | --- | --- |
| B1 | 7.17 |  |
| B2 | 7.21 |  |
| B3 | 7.87 | 6.13 |
| B4 |  | 5.61 |
| B5 | 7.89 |  |
| B6 | 8 |  |
| B7 |  | 7.06 |
| B8 | 7.67 |  |
